Biological target: T1, HIS-GST-Nxf3 (66-336), RRM-LRR domain (Drosophila melanogaster, UniProt Q8IQK4 66-336)
T1 sequence: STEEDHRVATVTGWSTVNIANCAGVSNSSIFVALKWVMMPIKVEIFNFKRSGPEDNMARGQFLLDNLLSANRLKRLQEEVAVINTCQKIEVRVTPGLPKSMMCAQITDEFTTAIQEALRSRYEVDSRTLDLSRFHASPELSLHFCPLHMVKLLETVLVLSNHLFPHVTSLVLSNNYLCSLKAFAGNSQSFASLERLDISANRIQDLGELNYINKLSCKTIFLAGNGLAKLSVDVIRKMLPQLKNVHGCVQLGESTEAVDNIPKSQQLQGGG
Assay: EMSA

CUCAUCUUGGUCGUACGCGGAAUAGUUUAAACUGU (ssRNA) [35 nt ssRNA]: binds.
